Experiments:
E. coli RNAP β′ subunit = target: T1, E. coli RNAP β′ subunit (E. coli, UniProt P0A8T7 1-1407); assay: cryo-EM structure; EC-RapA: 4 μM RNAP core enzyme with DNA/RNA scaffold, then 5 μM RapA, 22 °C, storage buffer (10 mM Hepes pH 7.5, 50 mM NaCl, 0.1 mM EDTA, 5 mM DTT); gel filtration; 1 mM AMPPNP and CMPCPP; BS3 cross-linked; 3.3 Å; conditions: both partners purified
T1 construct: RNA polymerase β′ subunit, E. coli; Stood in the assay as a subunit of the core enzyme m2, not alone; source: E. coli BL21(DE3), pVS10, purified as part of the RNAP core enzyme
T1 sequence (P0A8T7 whole entry): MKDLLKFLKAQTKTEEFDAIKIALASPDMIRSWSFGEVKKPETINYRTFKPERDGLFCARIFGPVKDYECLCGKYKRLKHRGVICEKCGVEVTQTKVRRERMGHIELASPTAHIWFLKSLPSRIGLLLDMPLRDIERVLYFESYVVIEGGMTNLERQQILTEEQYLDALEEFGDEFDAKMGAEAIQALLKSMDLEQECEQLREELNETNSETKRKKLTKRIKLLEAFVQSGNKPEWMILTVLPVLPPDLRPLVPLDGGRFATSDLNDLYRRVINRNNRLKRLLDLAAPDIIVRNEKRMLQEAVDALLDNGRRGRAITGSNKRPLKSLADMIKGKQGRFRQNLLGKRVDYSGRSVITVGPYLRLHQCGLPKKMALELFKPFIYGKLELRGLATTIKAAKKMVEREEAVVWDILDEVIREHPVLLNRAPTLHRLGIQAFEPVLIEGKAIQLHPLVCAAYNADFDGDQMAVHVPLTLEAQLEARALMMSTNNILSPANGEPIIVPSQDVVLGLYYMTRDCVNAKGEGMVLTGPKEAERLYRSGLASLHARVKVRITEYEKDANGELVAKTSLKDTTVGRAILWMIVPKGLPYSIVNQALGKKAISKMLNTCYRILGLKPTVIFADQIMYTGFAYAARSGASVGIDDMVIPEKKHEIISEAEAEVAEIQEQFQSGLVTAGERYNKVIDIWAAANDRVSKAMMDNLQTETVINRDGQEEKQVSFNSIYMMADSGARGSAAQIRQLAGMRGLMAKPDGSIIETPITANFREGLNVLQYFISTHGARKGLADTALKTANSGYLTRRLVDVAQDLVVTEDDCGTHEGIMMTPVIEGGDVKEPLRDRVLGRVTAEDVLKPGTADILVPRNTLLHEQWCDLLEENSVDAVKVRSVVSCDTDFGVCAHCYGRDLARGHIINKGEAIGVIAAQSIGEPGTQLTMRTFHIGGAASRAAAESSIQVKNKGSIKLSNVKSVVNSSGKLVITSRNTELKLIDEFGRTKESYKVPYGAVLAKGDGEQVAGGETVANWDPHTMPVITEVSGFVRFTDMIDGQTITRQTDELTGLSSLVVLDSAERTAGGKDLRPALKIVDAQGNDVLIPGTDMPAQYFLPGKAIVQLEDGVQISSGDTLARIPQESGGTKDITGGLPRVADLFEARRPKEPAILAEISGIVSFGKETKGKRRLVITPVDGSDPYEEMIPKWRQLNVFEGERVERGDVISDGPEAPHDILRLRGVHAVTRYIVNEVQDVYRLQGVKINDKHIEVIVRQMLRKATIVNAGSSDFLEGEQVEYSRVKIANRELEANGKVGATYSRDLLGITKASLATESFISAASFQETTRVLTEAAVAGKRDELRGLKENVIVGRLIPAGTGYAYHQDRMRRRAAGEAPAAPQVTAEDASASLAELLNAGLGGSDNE

E. coli RNAP β subunit = target: T2, E. coli RNAP β subunit (E. coli, UniProt P0A8V2 1-1342); assay: as above; conditions: both partners purified
T2 construct: RNA polymerase β subunit, E. coli; Stood in the assay as a subunit of the core enzyme m2, not alone; source: E. coli BL21(DE3), pVS10, purified as part of the RNAP core enzyme
T2 sequence (P0A8V2 whole entry): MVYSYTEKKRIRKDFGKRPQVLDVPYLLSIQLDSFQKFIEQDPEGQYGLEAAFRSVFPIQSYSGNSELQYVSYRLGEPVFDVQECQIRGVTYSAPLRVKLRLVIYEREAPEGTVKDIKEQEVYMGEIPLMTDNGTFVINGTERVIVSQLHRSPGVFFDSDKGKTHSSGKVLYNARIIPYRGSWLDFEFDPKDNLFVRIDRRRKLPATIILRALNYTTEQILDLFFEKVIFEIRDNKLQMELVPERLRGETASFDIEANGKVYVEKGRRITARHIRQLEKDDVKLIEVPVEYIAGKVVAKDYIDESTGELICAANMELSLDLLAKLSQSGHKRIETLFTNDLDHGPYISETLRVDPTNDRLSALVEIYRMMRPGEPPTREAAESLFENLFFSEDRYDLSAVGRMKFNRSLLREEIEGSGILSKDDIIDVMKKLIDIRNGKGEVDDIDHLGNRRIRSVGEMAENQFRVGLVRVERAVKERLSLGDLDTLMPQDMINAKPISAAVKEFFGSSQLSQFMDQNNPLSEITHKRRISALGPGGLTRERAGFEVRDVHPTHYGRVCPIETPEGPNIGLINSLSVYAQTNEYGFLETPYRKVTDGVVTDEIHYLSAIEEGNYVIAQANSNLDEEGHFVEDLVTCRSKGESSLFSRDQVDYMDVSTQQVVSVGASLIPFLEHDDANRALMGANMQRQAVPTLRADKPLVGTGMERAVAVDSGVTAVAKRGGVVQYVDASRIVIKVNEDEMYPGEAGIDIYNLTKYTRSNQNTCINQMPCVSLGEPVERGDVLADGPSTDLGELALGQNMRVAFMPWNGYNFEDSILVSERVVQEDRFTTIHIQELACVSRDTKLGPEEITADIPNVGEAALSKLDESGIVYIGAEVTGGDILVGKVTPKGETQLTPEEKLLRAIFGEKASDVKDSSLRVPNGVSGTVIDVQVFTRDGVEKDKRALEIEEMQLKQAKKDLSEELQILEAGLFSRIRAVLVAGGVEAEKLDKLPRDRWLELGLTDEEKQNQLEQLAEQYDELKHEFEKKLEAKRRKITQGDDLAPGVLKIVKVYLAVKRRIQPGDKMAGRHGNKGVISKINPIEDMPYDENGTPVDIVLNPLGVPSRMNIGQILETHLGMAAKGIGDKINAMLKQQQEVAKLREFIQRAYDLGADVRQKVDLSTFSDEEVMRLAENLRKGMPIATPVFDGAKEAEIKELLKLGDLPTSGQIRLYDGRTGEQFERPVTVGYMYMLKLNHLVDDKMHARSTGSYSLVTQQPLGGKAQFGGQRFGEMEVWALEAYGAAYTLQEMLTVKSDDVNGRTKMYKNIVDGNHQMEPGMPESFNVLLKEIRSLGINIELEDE

B1: E. coli RapA protein (enzyme, UniProt P60240 1-968, looked up)
chain: MPFTLGQRWISDTESELGLGTVVAVDARTVTLLFPSTGENRLYARSDSPVTRVMFNPGDTITSHDGWQMQVEEVKEENGLLTYIGTRLDTEESGVALREVFLDSKLVFSKPQDRLFAGQIDRMDRFALRYRARKYSSEQFRMPYSGLRGQRTSLIPHQLNIAHDVGRRHAPRVLLADEVGLGKTIEAGMILHQQLLSGAAERVLIIVPETLQHQWLVEMLRRFNLRFALFDDERYAEAQHDAYNPFDTEQLVICSLDFARRSKQRLEHLCEAEWDLLVVDEAHHLVWSEDAPSREYQAIEQLAEHVPGVLLLTATPEQLGMESHFARLRLLDPNRFHDFAQFVEEQKNYRPVADAVAMLLAGNKLSNDELNMLGEMIGEQDIEPLLQAANSDSEDAQSARQELVSMLMDRHGTSRVLFRNTRNGVKGFPKRELHTIKLPLPTQYQTAIKVSGIMGARKSAEDRARDMLYPERIYQEFEGDNATWWNFDPRVEWLMGYLTSHRSQKVLVICAKAATALQLEQVLREREGIRAAVFHEGMSIIERDRAAAWFAEEDTGAQVLLCSEIGSEGRNFQFASHMVMFDLPFNPDLLEQRIGRLDRIGQAHDIQIHVPYLEKTAQSVLVRWYHEGLDAFEHTCPTGRTIYDSVYNDLINYLASPDQTEGFDDLIKNCREQHEALKAQLEQGRDRLLEIHSNGGEKAQALAESIEEQDDDTNLIAFAMNLFDIIGINQDDRGDNMIVLTPSDHMLVPDFPGLSEDGITITFDREVALAREDAQFITWEHPLIRNGLDLILSGDTGSSTISLLKNKALPVGTLLVELIYVVEAQAPKQLQLNRFLPPTPVRMLLDKNGNNLAAQVEFETFNRQLNAVNRHTGSKLVNAVQQDVHAILQLGEAQIEKSARALIDAARNEADEKLSAELSRLEALRAVNPNIRDDELTAIESNRQQVMESLDQAGWRLDALRLIVVTHQ
notes: RapA, Swi2/Snf2 family ATPase of E. coli, full-length; NTD is residues 1-109; In the EC-RapA sample the complex was cross-linked with BS3; also called τ factor
**Q.** Does B1 bind (E. coli RNAP β′ subunit)?
**A.** binds

**Q.** Does B1 bind (E. coli RNAP β subunit)?
**A.** binds

— PMC8666675, “Structural basis of RNA polymerase recycling by the Swi2/Snf2 family of ATPase RapA in Escherichia coli” (The Journal of Biological Chemistry, 2021)
